Data from article PMC9509318 (2022).

Experiments:
[1] = target: T1, Pfs48/45 full-length ectodomain (Plasmodium falciparum, UniProt Q8I6T1 27-427); test: SPR
T1 chain: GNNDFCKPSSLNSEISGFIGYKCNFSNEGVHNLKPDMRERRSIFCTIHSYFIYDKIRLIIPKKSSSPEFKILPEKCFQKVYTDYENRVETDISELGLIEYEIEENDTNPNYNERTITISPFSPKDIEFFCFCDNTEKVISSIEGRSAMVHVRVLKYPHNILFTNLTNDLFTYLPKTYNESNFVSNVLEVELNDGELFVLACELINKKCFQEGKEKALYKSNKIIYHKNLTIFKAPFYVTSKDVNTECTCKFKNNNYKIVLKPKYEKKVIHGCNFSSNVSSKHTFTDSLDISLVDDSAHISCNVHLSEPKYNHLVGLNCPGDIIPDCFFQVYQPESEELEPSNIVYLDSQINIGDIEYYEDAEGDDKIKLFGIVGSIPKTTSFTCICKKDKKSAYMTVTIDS

[2] = target: T1, Pfs48/45 full-length ectodomain; test: SPR

B1: 85RF45.1 monoclonal antibody (antibody, V domains shown)
VH: EVQLVESGGGLLQPGRSLKLSCVASGFTFNNYWMSWIRQAPGKGLEWIASISNIGGTIYYPDSVKGRFTISRDSAQNTLYLQMNSLRSEDTATYYCTRDLRMSDYFDYWGQGVMVTVSS
VL: QFVLSQPNSVSTNLGSTVKLSCKRSTGNIGSNYVSWYQHHEGRSPTTMIYRDDQRPDGVPDRFSGSIDRSSNSALLTIDNVQTEDEAAYFCHSYSTGMYIFGGGTKLTVL
B1 gave a Kd [1] of 1.34 nM.

B2: 10D8 monoclonal antibody (antibody, V domains shown)
VH: EVMLVESGGDLVKPGGSLKVSCAASGFTFSNYAMSWVRQTPEKRLEWVATISSGASYTHYPDSVKGRFTISRDNAKNTLYLQMSSLRSEDTAMYYCGRQVNRHDRALDAMDYWGQGTSVTVSP
VL: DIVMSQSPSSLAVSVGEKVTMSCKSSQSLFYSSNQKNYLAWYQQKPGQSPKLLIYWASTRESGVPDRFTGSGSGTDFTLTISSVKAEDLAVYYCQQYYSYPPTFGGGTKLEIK
In the case of B2, the Kd [1] is reported as 35.8 nM and the koff [2] is reported as 0.0027 s⁻¹.

B3: 32F3 monoclonal antibody (antibody, V domains shown)
VH: DVKLVESGGGLVKLGGSLKLSCAASGFTFSSYYMSWVRQTPEKRLELVAAINNNGGSTYYPDTVKGRFTISRDNAKNTLNLQMNSLKSEDTALYYCTRQHYGNLYFFDYWGQGTTLTVSS
VL: QIVLSQSPAILSASPGEKVTMTCRASSSVTYIHWYQQKPGSSPKPWIQATSSLASGVPARFSGSGSGTSYSLSISRVEAEDAATYYCQQWSSNPLTFGAGTKLELK
Binder B3 has a Kd [1] of 4.1 nM and a koff [2] of 0.000121 s⁻¹.
